# Measured values published in the supplement of paper PMC10567573.
# B1: LOXL2 (parent)
# chain: HISSCKLGPQVSLDPMKNVTCENG
# B2: APBB1IP (parent)
# chain: LPLPPPPPEPLSQVSMWDQRWQDH
# B3: SMG5 (parent)
# chain: FVSIAQSEQESLLQQAQAQFRMAQ
# Variants of: B1
# Experiment: protein stability index of a GFP-peptide fusion (GPS, HEK-293T) (PSI 1-6); higher = more stable
# Conditions: c terminus: a fixed tail appended
# 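Further: lentivirally expressed fusions sorted by FACS into six bins by GFP to DsRed ratio, PSI derived from sequencing read proportions per bin multiplied by bin number.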
row,Variant,protein stability index
1,HISSCKLGPQVSLNPMKNVTCENG,3.33
2,HISSCKLGPQVSLDPWKNVTCENG,2.86
3,HISSCKLGPQVSLDPTKNVTCENG,4.04
4,HIQSCKLGPQVSLDPMKNVTCENG,3.92
5,HISSCKLGPQVQLDPMKNVTCENG,4.44
6,HISSCKLGPQVSLDPMKNVTIENG,3.53
7,HIPSCKLGPQVSLDPMKNVTCENG,3.99
8,HISSCKLGPQVSLDPMKNVHCENG,3.85
9,HISSCALGPQVSLDPMKNVTCENG,3.96
10,HISSCKLGPQVSLDPMKNVTWENG,3.75
11,HISSCKLFPQVSLDPMKNVTCENG,3.04
12,HISSCKLGPQVSLDIMKNVTCENG,3.41
13,HISACKLGPQVSLDPMKNVTCENG,3.65
14,HISSCKLGPQVSLDPRKNVTCENG,4.47
15,HISSCKLGPQVSEDPMKNVTCENG,4.58
16,HISSTKLGPQVSLDPMKNVTCENG,4.54
17,HIMSCKLGPQVSLDPMKNVTCENG,3.3
18,HISSCKLGPQVSLDDMKNVTCENG,4.19
19,HISSCKLGPQVSLDPMKNVCCENG,3.37
20,HISSCKLGPQVSLDPMKNVECENG,4.16
21,HISSCKLGPQVSGDPMKNVTCENG,4.61
22,HISSCKLGPQVELDPMKNVTCENG,4.48
23,HISSCKLGPQVSLDPMKNMTCENG,3.55

row,Variant,protein stability index
1,HISSCKLGPQVSLDPDKNVTCENG,4.75
2,HISSCKCGPQVSLDPMKNVTCENG,3.59
3,HISLCKLGPQVSLDPMKNVTCENG,3.6
4,HISSCKLMPQVSLDPMKNVTCENG,3.95
5,HISSCKLGPQVSLDPMKNVTTENG,4.08
6,HISSCKLGPNVSLDPMKNVTCENG,3.92
7,HIASCKLGPQVSLDPMKNVTCENG,3.69
8,HISSWKLGPQVSLDPMKNVTCENG,3
9,HISSCKQGPQVSLDPMKNVTCENG,4.32
10,HISSCKLGPQVSLPPMKNVTCENG,3.78
11,HISSCKLGPQVSLDPMKNVTNENG,4.14
12,HISSCKLGPQVSLDPFKNVTCENG,3.74
13,NISSCKLGPQVSLDPMKNVTCENG,4.52
14,HISSCKLGPQVSLDPMKHVTCENG,3.81
15,HISSCKLGPQVCLDPMKNVTCENG,3.43
16,HHSSCKLGPQVSLDPMKNVTCENG,3.53
17,HISSCKLGPQVSLDPMKNWTCENG,2.99
18,HISSCKLGPQVSLDPMKNHTCENG,3.89
19,HISSCKLCPQVSLDPMKNVTCENG,3.15
20,HISSCKLGPQVSLDPMKNVTCLNG,2.58
21,HISCCKLGPQVSLDPMKNVTCENG,3.78
22,HISSCKLGPQVSLDPMKNVTCEIG,2.9
23,HITSCKLGPQVSLDPMKNVTCENG,3.59

row,Variant,protein stability index
1,HPSSCKLGPQVSLDPMKNVTCENG,3.76
2,HISSCKLGPQVSLDPMKNTTCENG,3.71
3,HISSCKLGPQVSLDPMYNVTCENG,3.44
4,HISSCKLGPQVSLDPMKNVTMENG,3.61
5,HISSCKLGPQVSLDPMKNVTCRNG,3.5
6,HISSCKLGPAVSLDPMKNVTCENG,4.29
7,HISSCKLGPQVSLDPMKNVTCERG,3.58
8,HISSCKLGPQVSLDPMKNVTCEEG,4.63
9,HISMCKLGPQVSLDPMKNVTCENG,3.94
10,HQSSCKLGPQVSLDPMKNVTCENG,4.25
11,HISRCKLGPQVSLDPMKNVTCENG,3.52
12,HIHSCKLGPQVSLDPMKNVTCENG,3.51
13,HISSCKLGPQVSWDPMKNVTCENG,3.58
14,HISSCKLGPQVSLDPMSNVTCENG,4.02
15,HISSCKLGPEVSLDPMKNVTCENG,4.42
16,HISSCKLGPQVSLIPMKNVTCENG,3.44
17,HISSCKLGPQVSLDPMKNVYCENG,3.58
18,HISSCKLGPQVSLDPMKNVTCYNG,2.44
19,HISSCKLGPQVNLDPMKNVTCENG,3.9
20,HISSCKSGPQVSLDPMKNVTCENG,3.96
21,YISSCKLGPQVSLDPMKNVTCENG,2.46
22,HRSSCKLGPQVSLDPMKNVTCENG,4.11
23,HISSCKLGPQVSLDPMKNVTCENH,3.94

row,Variant,protein stability index
1,HISSCKLGPQVSLDPMKNVTCENY,3.29
2,HISSCKLGPQVSLDPMKLVTCENG,3.12
3,HYSSCKLGPQVSLDPMKNVTCENG,3.61
4,HISSCKLGRQVSLDPMKNVTCENG,3.76
5,HISSYKLGPQVSLDPMKNVTCENG,4
6,HISSGKLGPQVSLDPMKNVTCENG,4.17
7,HISSCKLQPQVSLDPMKNVTCENG,3.7
8,HISSCKLTPQVSLDPMKNVTCENG,4.45
9,HISQCKLGPQVSLDPMKNVTCENG,3.69
10,HISSCKLGPQVSLDPMFNVTCENG,2.97
11,HISSRKLGPQVSLDPMKNVTCENG,4.1
12,HISSCKLGPQVSLWPMKNVTCENG,2.14
13,HIWSCKLGPQVSLDPMKNVTCENG,3.14
14,HISSCKLGPQVSLGPMKNVTCENG,3.45
15,HISSCKLGPQRSLDPMKNVTCENG,3.94
16,HISSCKLGPQVLLDPMKNVTCENG,3.31
17,HISSCKLGPQVSRDPMKNVTCENG,3.8
18,HISSCKGGPQVSLDPMKNVTCENG,4.76
19,HISSCKLGPQVSLDPMKDVTCENG,4.34
20,HTSSCKLGPQVSLDPMKNVTCENG,4.54
21,HISSCKLGPQVSLDPMKNVTCVNG,3
22,GISSCKLGPQVSLDPMKNVTCENG,4.46
23,HISSEKLGPQVSLDPMKNVTCENG,4.95

row,Variant,protein stability index
1,HISSCKLGPQVSLDWMKNVTCENG,3.08
2,HISSCKLGPQVSLDPMWNVTCENG,3.05
3,HISSCKLGPQVSLDPMHNVTCENG,4.03
4,HISSCKLGPSVSLDPMKNVTCENG,4.33
5,HISSCKLGPQVSLDPCKNVTCENG,3.94
6,PISSCKLGPQVSLDPMKNVTCENG,4.33
7,HISSCKLGPQVSLDPMKNVTRENG,3.94
8,HISSCKLGPQVSLDPMKNVGCENG,3.87
9,HISSCKLGPQVSLDPMKNVTCETG,3.77
10,HISSCKLGPQVSLDPMKEVTCENG,3.82
11,HISSCKLGPQVSLDPMKVVTCENG,3.78
12,HISSCKLGPQVSLDPMKNDTCENG,4.67
13,HISSCKLGPQVYLDPMKNVTCENG,3.24
14,HISSCKLGPQVSLDPKKNVTCENG,4.5
15,HISSCKLGPDVSLDPMKNVTCENG,4.58
16,HISSCKLGPQVSLDPMKNVWCENG,2.31
17,HLSSCKLGPQVSLDPMKNVTCENG,4.24
18,HISSCKLGPQVSLDTMKNVTCENG,4.14
19,HISSCKLGPQTSLDPMKNVTCENG,4.07
20,DISSCKLGPQVSLDPMKNVTCENG,4.33
21,HISSCKAGPQVSLDPMKNVTCENG,4.62
22,HISSCKLVPQVSLDPMKNVTCENG,3.62
23,HISSCKLGPQVSLDPMKNVLCENG,4.37

row,Variant,protein stability index
1,HISSCKLGPQVSLDPEKNVTCENG,5.1
2,HISSCKLGPQVSLDPMKNETCENG,4.44
3,HISSCKLGPQVSLDPMKNATCENG,4.32
4,HISSCKLGPQVSLDPMKPVTCENG,3.92
5,HISSCKLGPQVSLDPMKNVKCENG,4.26
6,HISSCKLGPQVSLDAMKNVTCENG,3.86
7,HISSCKLGPQVSLDPMKNVTCENQ,4
8,HISSCKLGPQVSLDPMKTVTCENG,3.89
9,HISSCKLLPQVSLDPMKNVTCENG,4.02
10,HISSCKLGPQVSLDYMKNVTCENG,2.84
11,HISSCKLGPQVSLDPLKNVTCENG,3.78
12,HISSCKLGPQVSLDPMKNVICENG,3.84
13,HIFSCKLGPQVSLDPMKNVTCENG,2.94
14,HISSCKLGPQVSLDPMKNVTCEMG,3.26
15,HISSCKLGPFVSLDPMKNVTCENG,3.07
16,HISSCKLGPQVSFDPMKNVTCENG,3.52
17,HISSCKLGPTVSLDPMKNVTCENG,3.36
18,HISSCKLGPQVSLDPMKNVTCENP,3.79
19,HISTCKLGPQVSLDPMKNVTCENG,3.65

# Variants of: B2
# Experiment: as above
# Conditions: c terminus: a fixed tail appended
row,Variant,protein stability index
1,LPLPKPPPEPLSQVSMWDQRWQDH,3.28
2,LPLPMPPPEPLSQVSMWDQRWQDH,3.84
3,LPLPWPPPEPLSQVSMWDQRWQDH,3.4
4,LPLPPPEPEPLSQVSMWDQRWQDH,4.25
5,LPLPPPKPEPLSQVSMWDQRWQDH,3.97

# Variants of: B3
# Experiment: as above
# Conditions: c terminus: a fixed tail appended
row,Variant,protein stability index
1,AVSIAQSEQESLLQQAQAQFRMAQ,4.58
2,CVSIAQSEQESLLQQAQAQFRMAQ,2.75
3,DVSIAQSEQESLLQQAQAQFRMAQ,4.28
4,EVSIAQSEQESLLQQAQAQFRMAQ,4.16
5,GVSIAQSEQESLLQQAQAQFRMAQ,4.01
6,HVSIAQSEQESLLQQAQAQFRMAQ,3.9
7,IVSIAQSEQESLLQQAQAQFRMAQ,2.96
8,KVSIAQSEQESLLQQAQAQFRMAQ,3.77
9,LVSIAQSEQESLLQQAQAQFRMAQ,3.3
10,MVSIAQSEQESLLQQAQAQFRMAQ,2.97
11,NVSIAQSEQESLLQQAQAQFRMAQ,3.93
12,PVSIAQSEQESLLQQAQAQFRMAQ,3.77
13,QVSIAQSEQESLLQQAQAQFRMAQ,3.7
14,RVSIAQSEQESLLQQAQAQFRMAQ,3.42
15,SVSIAQSEQESLLQQAQAQFRMAQ,3.41
16,TVSIAQSEQESLLQQAQAQFRMAQ,4.04
17,VVSIAQSEQESLLQQAQAQFRMAQ,3.88
18,WVSIAQSEQESLLQQAQAQFRMAQ,2.65
19,YVSIAQSEQESLLQQAQAQFRMAQ,2.51
20,FASIAQSEQESLLQQAQAQFRMAQ,3.24
21,FCSIAQSEQESLLQQAQAQFRMAQ,2.82
22,FDSIAQSEQESLLQQAQAQFRMAQ,3.77
23,FESIAQSEQESLLQQAQAQFRMAQ,3.69
24,FFSIAQSEQESLLQQAQAQFRMAQ,2.22
25,FGSIAQSEQESLLQQAQAQFRMAQ,3.65

row,Variant,protein stability index
1,FHSIAQSEQESLLQQAQAQFRMAQ,2.43
2,FISIAQSEQESLLQQAQAQFRMAQ,2.59
3,FKSIAQSEQESLLQQAQAQFRMAQ,3.12
4,FLSIAQSEQESLLQQAQAQFRMAQ,2.99
5,FMSIAQSEQESLLQQAQAQFRMAQ,2.9
6,FNSIAQSEQESLLQQAQAQFRMAQ,4.14
7,FPSIAQSEQESLLQQAQAQFRMAQ,3.8
8,FQSIAQSEQESLLQQAQAQFRMAQ,2.9
9,FRSIAQSEQESLLQQAQAQFRMAQ,3.45
10,FSSIAQSEQESLLQQAQAQFRMAQ,3.45
11,FTSIAQSEQESLLQQAQAQFRMAQ,3.35
12,FWSIAQSEQESLLQQAQAQFRMAQ,2.98
13,FYSIAQSEQESLLQQAQAQFRMAQ,2.69
14,FVAIAQSEQESLLQQAQAQFRMAQ,1.99
15,FVCIAQSEQESLLQQAQAQFRMAQ,1.66
16,FVDIAQSEQESLLQQAQAQFRMAQ,2.22
17,FVEIAQSEQESLLQQAQAQFRMAQ,2.61
18,FVFIAQSEQESLLQQAQAQFRMAQ,1.87
19,FVGIAQSEQESLLQQAQAQFRMAQ,2.13
20,FVHIAQSEQESLLQQAQAQFRMAQ,1.74
21,FVIIAQSEQESLLQQAQAQFRMAQ,1.61
22,FVKIAQSEQESLLQQAQAQFRMAQ,2.28
23,FVLIAQSEQESLLQQAQAQFRMAQ,1.87
24,FVMIAQSEQESLLQQAQAQFRMAQ,1.6
